Results: article PMC3769348, “Secreted and Transmembrane 1A Is a Novel Co-Stimulatory Ligand” (PLoS ONE, 2013)

Biological target: T1, SECTM1B-Fc fusion protein (extracellular domain of murine SECTM1B fused to aglycosyl human IgG1 Fc) (mouse, UniProt Q9JL59 29-160, N-glycosylated)
T1 construct: Secreted and transmembrane 1B (SECTM1B), mouse, extracellular domain; The cDNA was cloned between a CD5 leader and the human IgG1 aglycosyl Fc in pEE12(CMV/T7)CD5Lhγ1; also called mSECTM1B-Fc; Secreted and transmembrane 1B; source: CHO-S cells, purified with protein G agarose (elution with glycine pH 2.0); not shown: Fc (human IgG1, aglycosyl mutant), C-terminal, kept
T1 sequence (looked up): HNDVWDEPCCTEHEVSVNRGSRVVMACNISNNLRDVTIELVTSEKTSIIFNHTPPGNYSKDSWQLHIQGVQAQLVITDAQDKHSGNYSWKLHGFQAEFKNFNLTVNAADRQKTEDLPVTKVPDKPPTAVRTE
Assay: SPR; BIAcore 3000, 25°C, CM5 chip; Fc fusion proteins held on separate flow cells by mouse anti-human IgG (SBH2) on amine-coupled rabbit anti-mouse antibody; Fc fusion proteins at 25 µM injected in HEPES-buffered saline pH 7.4 at 5 µl per minute
Settings: both partners purified

B1: CD7-Fc fusion protein (extracellular domain of murine CD7 fused to aglycosyl human IgG1 Fc) (Fc fusion, mouse, UniProt P50283 24-150, looked up)
chain: QDVHQSPRLTIASEGDSVNITCSTRGHLEGILMKKIWPQAYNVIYFEDRQEPTVDRTFSGRINFSGSQKNLTITISSLQLADTGDYTCEAVRKVSARGLFTTVVVKEKSSQEAYRSQEPLQTSFSFP
modifications: N-glycosylated
notes: CD7, mouse, extracellular domain; The cDNA was cloned between a CD5 leader and the human IgG1 aglycosyl Fc in pEE12(CMV/T7)CD5Lhγ1; also called mCD7-Fc; source: CHO-S cells, purified with protein G agarose (elution with glycine pH 2.0); not shown: Fc (human IgG1, aglycosyl mutant), C-terminal, kept
- binding result: binds
